Results on three substances are retold here after paper PMC3683295.

One experiment addresses BCL-xLΔC (human) (UniProt Q07817). The experiment in a line: native gel or EMSA.
The target in experiment [1] is BCL-xLΔLΔC (human) (UniProt Q07817). Nature of the experiment: native gel or EMSA.
For experiment [2] the target is unchanged. The experiment in a line: AUC.
Experiment [3] shares this target. Nature of the experiment: NMR solution structure.

For “BCL-xLΔC (from UniProt Q07817-1 1-211) (domain or fragment)”, in the experiment with BCL-xLΔC (human), the stoichiometry N was 2. Regarding “BCL-xLΔLΔC (from UniProt Q07817-1 1-211) (domain or fragment)”, in the experiment with BCL-xLΔLΔC (human) [1], the stoichiometry N is 2. Take PUMA^BH3 (peptide): the stoichiometry N with BCL-xLΔLΔC (human) [2], with BCL-xLΔC (human) and with BCL-xLΔLΔC (human) [3] was 1 throughout.
